Measured values from patent US20260103529A1, “Amino Acid Sequences Directed Against the Melanocortin 4 Receptor and Polypeptides Comprising the Same for the Treatment of MC4R-Related Diseases and Disorders” (Confo Therapeutics N.V., priority 2022, published 2026).

Target: MC4R of the CHO stable cell line used for radioligand displacement (Table 1A) (UniProt P32245)
Assay: radioligand displacement, CHO stable cell line, n = 2; radioligand not named

- Radioligand displacement (IC50 or Ki not stated): 6.48 nM
B1: pN0162 (VHH)
VHH: QVQLVESGGGLVQPGGSLRLSCAASGSAFSLNVMGWYRQTPGNQRALVAEITKDGSTNYADSAKGRFTISRDNAKNTVHLQMDSLKPEDTAVYYCKARTGRIVRPLDYWGQGTQVTVSS
